Results as given in patent US20210380703A1 (RIGEL PHARMACEUTICALS, published 2021).
Residue numbers refer to the chain shown, from its start.

Experiments:
[1] = target: T1, Human ACVR2A (human, UniProt P27037 20-135, limits assumed); assay: ELISA
T1 construct: also called activin receptor, type II A
How it was run: (§1)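 mAb binding by ELISA; antigens: hu ACVR2A, mu ACVR2A; pos ctrl biotinylated goat anti-hu kappa LC; neg ctrl hu Fc.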

[2] = target: Mouse ACVR2A (mouse, UniProt P27038 20-135, limits assumed); assay: ELISA
How it was run: as §1

[3] = target: T2, Goat anti-Human Kappa; assay: ELISA, positive control
T2 construct: Positive control of the ELISA; also called biotinylated goat anti-human kappa light chain
How it was run: as §1
Further: test concentration or dose not given here.

T1 sequence (P27037 20-135 limits assumed): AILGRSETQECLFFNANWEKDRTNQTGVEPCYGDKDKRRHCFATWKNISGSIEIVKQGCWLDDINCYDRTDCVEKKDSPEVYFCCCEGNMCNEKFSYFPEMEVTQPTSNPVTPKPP
Sequence of Mouse ACVR2A (P27038 20-135 limits assumed): as the sequence (P27037 20-135 limits assumed) above, with K20R, V73I counted along it

B1: 371_F06 (antibody, V domains shown)
VH: EVQLLESGGGLVQPGGSLRLSCAASGFTFDSYSMNWVRQAPGKGLEWVANINYNGGYTSYADSVKGRFTISRDNSKNTLYLQMNSLRAEDTAVYYCARSANWHDTALDYWGQGTLVTVSS
VL: DIQMTQSPSSLSASVGDRVTITCRASQSIVSYLNWYQQKPGKAPKLVIYAATSRHSGVPSRFSGSGSGTDFTLTISSLQPEDFATYYCQQSYNSPLTFGGGTKVEIK
B1 gave an optical density [1] of 2.41 OD, an optical density [2] of 2.79 OD and an optical density [3] of 3.46 OD.

B2: 373_D05 (antibody, V domains shown)
VH: B1 VH with D30S, A49S, N50G, G55S, T58K, S59G
VL: B1 VL with V30L, H55A, N93D
Binder B2 has an optical density [1] of 3.68 OD, an optical density [2] of 3.73 OD and an optical density [3] of 3.25 OD.

B3: 371_H09 (antibody, V domains shown)
VH: B1 VH with A49S
VL: B1 VL with V30L, S31T, L33V, R54L, H55A, N93D
B3 gave an optical density [1] of 2.96 OD, an optical density [2] of 3.23 OD and an optical density [3] of 3.66 OD.

B4: 373_E01 (antibody, V domains shown)
VH: B1 VH with D30S, S33G, A49S, N50G, T58K, S59G
VL: B1 VL with L33V, V47L, S94N
B4 gave an optical density [1] of 2.35 OD, an optical density [2] of 2.56 OD and an optical density [3] of 2.99 OD.

B5: 371_F08 (antibody, V domains shown)
VH: B1 VH with S31D, A49S, N50G, S59G
VL: B1 VL with L33V, N93E
Binder B5 has an optical density [1] of 2.2 OD, an optical density [2] of 2.55 OD and an optical density [3] of 3.43 OD.

B6: 372_A04 (antibody, V domains shown)
VH: B1 VH with A49S, N50G, G55S
VL: B1 VL with V30L, S31T, H55A, N93E, S94T
For B6, the optical density [1] was 3.2 OD, the optical density [2] was 3.4 OD and the optical density [3] was 3.64 OD.

B7: 373_C08 (antibody, V domains shown)
VH: B1 VH with D30S
VL: B1 VL with V30I, V47L, T52S, R54L, H55Q, S94N
B7 showed an optical density [1] of 3.05 OD, an optical density [2] of 3.19 OD and an optical density [3] of 3.19 OD.

B8: 373_E07 (antibody, V domains shown)
VH: B1 VH with D30S, S33G
VL: B1 VL with V30L, S31T, L33V, V47L, R54L, H55A, N93E, S94T
B8 gave an optical density [1] of 3.48 OD, an optical density [2] of 3.54 OD and an optical density [3] of 3.23 OD.

B9: 373_G10 (antibody, V domains shown)
VH: B1 VH with D30S, S31D, S33G, A49S, T58K
VL: B1 VL with L33V, V47L, H55A, N93D, S94L
B9 showed an optical density [1] of 3.54 OD, an optical density [2] of 3.56 OD and an optical density [3] of 3.26 OD.

B10: 373_C11 (antibody, V domains shown)
VH: B1 VH with D30S, A49S, N50G, G55S, S59G
VL: B1 VL with V30L, S31T, L33V, A51V, H55A, N93E, S94T
B10 showed an optical density [1] of 3.49 OD, an optical density [2] of 3.47 OD and an optical density [3] of 3.17 OD.

B11: 373_C02 (antibody, V domains shown)
VH: B1 VH with S31D, A49S, N50G, G55S, T58K, S59G
VL: B1 VL with V30L, L33V, V47L, H55A, S94T
B11 was tested, and the optical density [1] was 3.45 OD, the optical density [2] was 3.47 OD and the optical density [3] was 3.15 OD.

B12: 373_E12 (antibody, V domains shown)
VH: B1 VH with D30S, S59G
VL: B1 VL with V30L, L33V, H55A, N93D, S94T
Binder B12 has an optical density [1] of 3.63 OD, an optical density [2] of 3.33 OD and an optical density [3] of 3.12 OD.

B13: 373_G12 (antibody, V domains shown)
VH: B1 VH with D30S, A49S
VL: B1 VL with V30L, V47L, A51T, R54L, H55A
Work on B13 yielded an optical density [1] of 3.47 OD, an optical density [2] of 3.29 OD and an optical density [3] of 3.26 OD.

B14: 373_A10 (antibody, V domains shown)
VH: B1 VH with D30S, S33G, A49S, N50G, G55S
VL: B1 VL with V30L, H55A, N93D, S94L
B14 gave an optical density [1] of 3.54 OD, an optical density [2] of 3.55 OD and an optical density [3] of 3.1 OD.

B15: 373_B12 (antibody, V domains shown)
VH: B1 VH with S33G, A49S, N50S, G55S
VL: B1 VL with L33V, V47L, H55A, N93D
B15 showed an optical density [1] of 3.12 OD, an optical density [2] of 3.08 OD and an optical density [3] of 3.27 OD.

B16: 373_A08 (antibody, V domains shown)
VH: B1 VH with S33G, A49S, S59G
VL: B1 VL with L33V, V47L, R54L, H55A, N93S, S94L
B16 showed an optical density [1] of 3.3 OD, an optical density [2] of 3.31 OD and an optical density [3] of 3.11 OD.

B17: 372_F03 (antibody, V domains shown)
VH: B1 VH with D30S, S33G, N50G
VL: B1 VL with V30L, H55A, N93D, S94T
With B17 the optical density [1] was 3.19 OD, the optical density [2] was 3.31 OD and the optical density [3] was 3.6 OD.

B18: 373_C04 (antibody, V domains shown)
VH: B1 VH with D30S, G55S, S59G
VL: B1 VL with V30I, L33V, A51V, H55A
In the case of B18, the optical density [1] is reported as 3.36 OD, the optical density [2] is reported as 3.5 OD and the optical density [3] is reported as 3.2 OD.

B19: 373_B06 (antibody, V domains shown)
VH: B1 VH with D30S, S31D, N50G, S59G
VL: B1 VL with V30L, S31T, L33V, N93E
B19 was tested, and the optical density [1] was 3.44 OD, the optical density [2] was 3.43 OD and the optical density [3] was 3.24 OD.

B20: 373_B10 (antibody, V domains shown)
VH: B1 VH with S33G, A49S
VL: B1 VL with V30L, V47L, H55A, N93D, S94L
With B20 the optical density [1] was 3.65 OD, the optical density [2] was 3.6 OD and the optical density [3] was 3.15 OD.

B21: 371_G05 (antibody, V domains shown)
VH: B1 VH with A49S, N50G, G55S, S59G
VL: B1 VL with V30S, V47L, A51V, H55A, N93S
With B21 the optical density [1] was 1.25 OD, the optical density [2] was 1.33 OD and the optical density [3] was 3.08 OD.

B22: 373_D01 (antibody, V domains shown)
VH: B1 VH with A49S, N50G, G55S, T58K, A106H
VL: B1 VL with V30L, L33V, H55A, N93D
Binder B22 has an optical density [1] of 3.23 OD, an optical density [2] of 3.57 OD and an optical density [3] of 3.04 OD.

B23: 373_C06 (antibody, V domains shown)
VH: B1 VH with D30S, N50G, S59G
VL: B1 VL with L33V, H55A, N93D, S94T
With B23 the optical density [1] was 3.54 OD, the optical density [2] was 3.53 OD and the optical density [3] was 3.16 OD.

B24: 372_F09 (antibody, V domains shown)
VH: B1 VH with G55S, T58K, S59G
VL: B1 VL with V30L, S31T, R54L, H55A, N93S
Work on B24 yielded an optical density [1] of 3.17 OD, an optical density [2] of 3.04 OD and an optical density [3] of 3.47 OD.

B25: 373_B04 (antibody, V domains shown)
VH: B1 VH with D30S, S33G, N50G, G55S, T58K, S59G
VL: B1 VL with V30L, S31T, V47L, H55A, N93E, S94T
In the case of B25, the optical density [1] is reported as 3.6 OD, the optical density [2] is reported as 3.62 OD and the optical density [3] is reported as 3.25 OD.

B26: 372_F06 (antibody, V domains shown)
VH: B1 VH with D30S, S31D, S33G, N50G, T58K
VL: B1 VL with V30L, L33V, V47L, R54L, H55A, N93E, S94T
In the case of B26, the optical density [1] is reported as 2.26 OD, the optical density [2] is reported as 2.54 OD and the optical density [3] is reported as 3.48 OD.

B27: 372_D02 (antibody, V domains shown)
VH: B1 VH with D30S, S33G, N35H, N50G, S59G
VL: B1 VL with V30L, S31T, H55A, N93D, S94N
B27 was tested, and the optical density [1] was 2.66 OD, the optical density [2] was 2.91 OD and the optical density [3] was 3.58 OD.

B28: 373_D10 (antibody, V domains shown)
VH: B1 VH with A49S, G55S, T58K, S59G
VL: B1 VL with V30L, L33V, V47L, H55A, N93D, S94L
Work on B28 yielded an optical density [1] of 3.61 OD, an optical density [2] of 3.61 OD and an optical density [3] of 3.11 OD.

B29: 372_F08 (antibody, V domains shown)
VH: B1 VH with D30S, S31D, A49S, G55S, S59G
VL: B1 VL with V30L, S31T, L33V, H55A, N93D, S94T
Work on B29 yielded an optical density [1] of 3.38 OD, an optical density [2] of 3.22 OD and an optical density [3] of 3.44 OD.

B30: 371_G10 (antibody, V domains shown)
VH: B1 VH with D30S, A49S, N50G, T58K
VL: B1 VL with V30S, L33V, V47L, Y92D, N93D
For B30, the optical density [1] was 1.65 OD, the optical density [2] was 1.92 OD and the optical density [3] was 3.41 OD.

B31: 373_D04 (antibody, V domains shown)
VH: B1 VH with A49S, N50G, G55S, T58K, S59G
VL: B1 VL with V30L, V47L, N93D
For B31, the optical density [1] was 3.68 OD, the optical density [2] was 3.65 OD and the optical density [3] was 3.15 OD.

B32: 372_C07 (antibody, V domains shown)
VH: B1 VH with D30S, S31D, A49S, G55S, A106H
VL: B1 VL with V30L, Y92D, S94T
Work on B32 yielded an optical density [1] of 2.41 OD, an optical density [2] of 2.64 OD and an optical density [3] of 3.46 OD.

B33: 373_E05 (antibody, V domains shown)
VH: B1 VH with S33G, A49S
VL: B1 VL with V30L, L33V, V47L, A51V, H55A, N93D, S94L
B33 showed an optical density [1] of 3.54 OD, an optical density [2] of 3.59 OD and an optical density [3] of 3.24 OD.

B34: 373_A02 (antibody, V domains shown)
VH: B1 VH with S33G, A49S, N50G, T58K, S59G
VL: B1 VL with V30L, L33V, A51T, R54L, H55A, S94T
For B34, the optical density [1] was 2.8 OD, the optical density [2] was 2.97 OD and the optical density [3] was 2.96 OD.

B35: 372_B04 (antibody, V domains shown)
VH: B1 VH with S33G
VL: B1 VL with V30L, L33V, R54L, H55A, N93D
B35 was tested, and the optical density [1] was 2.61 OD, the optical density [2] was 3.12 OD and the optical density [3] was 3.59 OD.

B36: 373_H01 (antibody, V domains shown)
VH: B1 VH with S59G
VL: B1 VL with V30L, H55A, N93D, S94N
B36 was tested, and the optical density [1] was 3.1 OD, the optical density [2] was 3.28 OD and the optical density [3] was 3.12 OD.
